Results published in patent US20210244768A1, “CELL COMPOSITIONS AND USES THEREOF” (THE UNIVERSITY OF SYDNEY, priority 2018, published 2021).

Tests used:
PAVB expression = assay: qPCR of PAVB expression in hiPSC-GABA neurons exposed to BMP4; assay type: cell-based, human; conditions: BMP4 exposure during week 3 (about DIV14 to DIV21); not with week 4 or weeks 3 and 4
Method: (§1) After quantification, 1 μg of RNA was retrotranscribed with Superscript III First-Strand Synthesis SuperMix for qRT-PCR (Thermo Fisher Scientific Life Sciences). A total of 2 μl of cDNA was used for qPCR using the SYBR Select Master Mix. Real-Time PCR was run on a LightCycler 480 Instrument II (Roche Life Science). The cycling program for all genes is the following: • 1. 95° C. 10′ Initial denaturation step • 2. 95° C. 30″ • 3. 58° C. 30″ • 4. 72° C. 30″ go to 2 for 35 cycles • 5. Melting curve analysis.
(§2) iGABAergic neurons were prepared according to an adaptation of the method described in Example 5. During the GABAergic differentiation protocol, hiPSCs were exposed to BMP4, during week 3 only (i.e. about DIV14 to about DIV21), week 4 only (i.e. about DIV21 to about DIV28) or during week 3 and week 4 (i.e. about DIV14 to about DIV28). Following differentiation (i.e. DIV28) the iGABAergic neurons were assessed for expression of somatostatin (SST) and Parvalbumin (PVALB). BMP4 treated cells were then be tested for their ability to reverse neuropathic pain and compared to non-treated iGABAergic neurons using the SNI model as hereinbefore described.

SST expression = assay: qPCR of SST expression in hiPSC-GABA neurons exposed to BMP4; assay type: cell-based, human; conditions: BMP4 exposure during either or both of weeks 3 and 4
Method: as §1, §2

B1: BMP4: agent which induces BMP signalling, added during GABAergic differentiation of hiPSCs (protein, UniProt P12644 293-408, looked up)
Bone morphogenetic protein 4: SPKHHSQRARKKNKNCRRHSLYVDFSDVGWNDWIVAPPGYQAFYCHGDCPFPLADHLNSTNHAIVQTLVNSVNSSIPKACCVPTELSAISMLYLDEYDKVVLKNYQEMVVEGCGCR
increase of PAVB expression (PAVB expression): 6 fold
reduction of SST expression (SST expression): 50%
